# Results: PMC4751435 (2016)
# B1: luciferase-FOXP2 (wild-type, full-length 1-715) [human] / YFP-PIAS4 [human] (parent complex)
# chain 1: MMQESATETISNSSMNQNGMSTLSSQLDAGSRDGRSSGDTSSEVSTVELLHLQQQQALQAARQLLLQQQTSGLKSPKSSDKQRPLQVPVSVAMMTPQVITPQQMQQILQQQVLSPQQLQALLQQQQAVMLQQQQLQEFYKKQQEQLHLQLLQQQQQQQQQQQQQQQQQQQQQQQQQQQQQQQQQQQQQQQQHPGKQAKEQQQQQQQQQQLAAQQLVFQQQLLQMQQLQQQQHLLSLQRQGLISIPPGQAALPVQSLPQAGLSPAEIQQLWKEVTGVHSMEDNGIKHGGLDLTTNNSSSTTSSNTSKASPPITHHSIVNGQSSVLSARRDSSSHEETGASHTLYGHGVCKWPGCESICEDFGQFLKHLNNEHALDDRSTAQCRVQMQVVQQLEIQLSKERERLQAMMTHLHMRPSEPKPSPKPLNLVSSVTMSKNMLETSPQSLPQTPTTPTAPVTPITQGPSVITPASVPNVGAIRRRHSDKYNIPMSSEIAPNYEFYKNADVRPPFTYATLIRQAIMESSDRQLTLNEIYSWFTRTFAYFRRNAATWKNAVRHNLSLHKCFVRVENVKGAVWTVDEVEYQKRRSQKITGSPTLVKNIPTSLGYGAALNASLQAALAESSLPLLSNPGLINNASSGLLQAVHEDLNGSLDHIDSNGNSSPGCSPQPHIHSIHVKEEPVIAEDEDCPMSLVTTANHSPELEDDREIEEEPLSEDLE
# chain 2: MAAELVEAKNMVMSFRVSDLQMLLGFVGRSKSGLKHELVTRALQLVQFDCSPELFKKIKELYETRYAKKNSEPAPQPHRPLDPLTMHSTYDRAGAVPRTPLAGPNIDYPVLYGKYLNGLGRLPAKTLKPEVRLVKLPFFNMLDELLKPTELVPQNNEKLQESPCIFALTPRQVELIRNSRELQPGVKAVQVVLRICYSDTSCPQEDQYPPNIAVKVNHSYCSVPGYYPSNKPGVEPKRPCRPINLTHLMYLSSATNRITVTWGNYGKSYSVALYLVRQLTSSELLQRLKTIGVKHPELCKALVKEKLRLDPDSEIATTGVRVSLICPLVKMRLSVPCRAETCAHLQCFDAVFYLQMNEKKPTWMCPVCDKPAPYDQLIIDGLLSKILSECEDADEIEYLVDGSWCPIRAEKERSCSPQGAILVLGPSDANGLLPAPSVNGSGALGSTGGGGPVGSMENGKPGADVVDLTLDSSSSSEDEEEEEEEEEDEDEEGPRPKRRCPFQKGLVPAC
# B2: luciferase-FOXP2 (wild-type, full-length 1-715) [human] / YFP-PIAS2 [human] (parent complex)
# chain 1: B1 chain 1
# chain 2: MADFEELRNMVSSFRVSELQVLLGFAGRNKSGRKHDLLMRALHLLKSGCSPAVQIKIRELYRRRYPRTLEGLSDLSTIKSSVFSLDGGSSPVEPDLAVAGIHSLPSTSVTPHSPSSPVGSVLLQDTKPTFEMQQPSPPIPPVHPDVQLKNLPFYDVLDVLIKPTSLVQSSIQRFQEKFFIFALTPQQVREICISRDFLPGGRRDYTVQVQLRLCLAETSCPQEDNYPNSLCIKVNGKLFPLPGYAPPPKNGIEQKRPGRPLNITSLVRLSSAVPNQISISWASEIGKNYSMSVYLVRQLTSAMLLQRLKMKGIRNPDHSRALIKEKLTADPDSEIATTSLRVSLMCPLGKMRLTIPCRAVTCTHLQCFDAALYLQMNEKKPTWICPVCDKKAAYESLILDGLFMEILNDCSDVDEIKFQEDGSWCPMRPKKEAMKVSSQPCTKIESSSVLSKPCSVTVASEASKKKVDVIDLTIESSSDEEEDPPAKRKCIFMSETQSSPTKGVLMYQPSSVRVPSVTSVDPAAIPPSLTDYSVPFHHTPISSMSSDLPGLDFLSLIPVDPQYCPPMFLDSLTSPLTASSTSVTTTSSHESSTHVSSSSSRSETGVITSSGSNIPDIISLD
# B3: luciferase-FOXP2 (wild-type, full-length 1-715) [human] / YFP-PIAS1 (wild-type) [human] (parent complex)
# chain 1: B1 chain 1
# chain 2: MADSAELKQMVMSLRVSELQVLLGYAGRNKHGRKHELLTKALHLLKAGCSPAVQMKIKELYRRRFPQKIMTPADLSIPNVHSSPMPATLSPSTIPQLTYDGHPASSPLLPVSLLGPKHELELPHLTSALHPVHPDIKLQKLPFYDLLDELIKPTSLASDNSQRFRETCFAFALTPQQVQQISSSMDISGTKCDFTVQVQLRFCLSETSCPQEDHFPPNLCVKVNTKPCSLPGYLPPTKNGVEPKRPSRPINITSLVRLSTTVPNTIVVSWTAEIGRNYSMAVYLVKQLSSTVLLQRLRAKGIRNPDHSRALIKEKLTADPDSEIATTSLRVSLLCPLGKMRLTIPCRALTCSHLQCFDATLYIQMNEKKPTWVCPVCDKKAPYEHLIIDGLFMEILKYCTDCDEIQFKEDGTWAPMRSKKEVQEVSASYNGVDGCLSSTLEHQVASHHQSSNKNKKVEVIDLTIDSSSDEEEEEPSAKRTCPSLSPTSPLNNKGILSLPHQASPVSRTPSLPAVDTSYINTSLIQDYRHPFHMTPMPYDLQGLDFFPFLSGDNQHYNTSLLAAAAAAVSDDQDLLHSSRFFPYTSSQMFLDQLSAGGSTSLPTTNGSSSGSNSSLVSSNSLRESHSHTVTNRSSTDTASIFGIIPDIISLD
# B4: luciferase-FOXP2 (wild-type, full-length 1-715) [human] / YFP-PIAS3 [human] (parent complex)
# chain 1: B1 chain 1
# chain 2: MAELGELKHMVMSFRVSELQVLLGFAGRNKSGRKHELLAKALHLLKSSCAPSVQMKIKELYRRRFPRKTLGPSDLSLLSLPPGTSPVGSPGPLAPIPPTLLAPGTLLGPKREVDMHPPLPQPVHPDVTMKPLPFYEVYGELIRPTTLASTSSQRFEEAHFTFALTPQQVQQILTSREVLPGAKCDYTIQVQLRFCLCETSCPQEDYFPPNLFVKVNGKLCPLPGYLPPTKNGAEPKRPSRPINITPLARLSATVPNTIVVNWSSEFGRNYSLSVYLVRQLTAGTLLQKLRAKGIRNPDHSRALIKEKLTADPDSEVATTSLRVSLMCPLGKMRLTVPCRALTCAHLQSFDAALYLQMNEKKPTWTCPVCDKKAPYESLIIDGLFMEILSSCSDCDEIQFMEDGSWCPMKPKKEASEVCPPPGYGLDGLQYSPVQGGDPSENKKKVEVIDLTIESSSDEEDLPPTKKHCSVTSAAIPALPGSKGVLTSGHQPSSVLRSPAMGTLGGDFLSSLPLHEYPPAFPLGADIQGLDLFSFLQTESQHYGPSVITSLDEQDALGHFFQYRGTPSHFLGPLAPTLGSSHCSATPAPPPGRVSSIVAPGGALREGHGGPLPSGPSLTGCRSDIISLD
# Variants of: B1
# Assay: BRET; HEK293 cells; n = 3; control donor (nuclear-targeted luciferase) est. 0.001; read off a plot
row,Variant,response [BRET ratio]
1,chain 1 R553H,~-0.006

# Variants of: B1
# Assay: BRET; control donor est. 0.026; read off a plot
row,Variant,response [BRET ratio]
1,chain 1 K674R,~0.071

# Variants of: B2
# Assay: BRET; control donor est. 0.030; read off a plot
row,Variant,response [BRET ratio]
1,chain 1 K674R,~0.047

# Variants of: B2
# Assay: BRET; HEK293 cells; n = 3; control donor (nuclear-targeted luciferase) est. -0.008; read off a plot
row,Variant,response [BRET ratio]
1,chain 1 R553H,~-0.005

# Variants of: B3
# Assay: BRET; HEK293 cells; n = 3; control donor (nuclear-targeted luciferase) est. 0.000; read off a plot
row,Variant,response [BRET ratio]
1,chain 1 R553H,~0.014

# Variants of: B3
# Assay: BRET; control donor est. 0.036; read off a plot
row,Variant,response [BRET ratio]
1,chain 1 K674R,~0.11

# Variants of: B4
# Assay: BRET; HEK293 cells; n = 3; control donor (nuclear-targeted luciferase) est. -0.003; read off a plot
row,Variant,response [BRET ratio]
1,chain 1 R553H,~0.026

# Variants of: B4
# Assay: BRET; control donor est. 0.040; read off a plot
row,Variant,response [BRET ratio]
1,chain 1 K674R,~0.087
